Measured values published in patent US20240317847A1 (Bayer, published 2024).
Changes are numbered by the printed parent chain.

T1: murine IL-11 (mouse, UniProt P47873 22-199)
T1 sequence: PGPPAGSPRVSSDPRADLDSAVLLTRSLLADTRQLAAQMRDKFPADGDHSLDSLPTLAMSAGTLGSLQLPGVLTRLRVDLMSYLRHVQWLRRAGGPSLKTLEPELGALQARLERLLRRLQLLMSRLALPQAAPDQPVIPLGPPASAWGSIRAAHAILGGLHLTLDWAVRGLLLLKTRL

T2: human IL-11 (human, UniProt P20809 22-199)
T2 sequence: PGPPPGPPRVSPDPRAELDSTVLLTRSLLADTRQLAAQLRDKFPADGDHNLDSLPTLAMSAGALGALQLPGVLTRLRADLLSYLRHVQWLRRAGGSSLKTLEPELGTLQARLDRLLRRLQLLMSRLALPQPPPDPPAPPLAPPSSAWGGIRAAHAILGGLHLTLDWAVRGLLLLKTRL

T3: rat IL-11 (rat, UniProt Q99MF5 22-199)
T3 construct: Invigate, e.g. lot #C301019-19; also called rIL11
T3 sequence: T1 sequence with S50N, L84F, G94A, V137A, I138V

T4: human IL-11 (human, UniProt P20809 22-199)
T4 construct: Invigate, e.g. lot #C121021-19; biotinylated where coated in the ELISA; also called hIL-11; hIL11
T4 sequence: T2 sequence

T5: murine IL-11 (mouse, UniProt P47873 22-199)
T5 construct: Invigate, e.g. lot #C210819-09; biotinylated where coated in the ELISA; also called mIL-11; mIL11
T5 sequence: T1 sequence

T6: cynomolgus IL-11 (cynomolgus, UniProt P20808 22-199)
T6 construct: Invigate, lot #C290621-19; also called cIL11; cynoL-11
T6 sequence: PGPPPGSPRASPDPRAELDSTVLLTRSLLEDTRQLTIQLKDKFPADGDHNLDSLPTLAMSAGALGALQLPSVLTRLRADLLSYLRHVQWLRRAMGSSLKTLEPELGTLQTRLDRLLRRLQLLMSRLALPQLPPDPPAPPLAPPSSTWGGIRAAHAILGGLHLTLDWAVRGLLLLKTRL

B1: TPP-31293 (antibody, IgG4, V domains shown)
VH: EVQLLESGGGLVQPGGSLRLSCAASGFTFSHYDMNWVRQAPGKGLEWVGVISYDGSNKFYADFVKGRFTISRDNSKNTLYLQMNSLRAEDTAVYYCARTPGSHFDYWGQGTLVTVSS
VL: QSVLTQPPSASGTPGQRVTISCSGSSSNIGNNAVNWYQQLPGTAPKLLIYYDDLLPSGVPDRFSGSKSGTSASLAISGLRSEDEADYYCSAWDDSLNGVVFGGGTKLTVL
notes: hIgG4 SPLE, lambda
B2: TPP-31278 (antibody, IgG4, V domains shown)
VH: B1 VH with V37L
VL: B1 VL with A33Y
notes: hIgG4 SPLE, lambda
B3: TPP-31294 (antibody, IgG4, V domains shown)
VH: B1 VH with V37L, G49A
VL: B1 VL
notes: hIgG4 SPLE, lambda
B4: TPP-31285 (antibody, IgG4, V domains shown)
VH: B1 VH with V37L
VL: B1 VL with S90A
notes: hIgG4 SPLE, lambda
B5: TPP-31284 (antibody, IgG4, V domains shown)
VH: B1 VH with V37L
VL: B1 VL with L55R
notes: hIgG4 SPLE, lambda
B6: TPP-31292 (antibody, IgG4, V domains shown)
VH: B1 VH with N35H, V37L
VL: B1 VL
notes: hIgG4 SPLE, lambda
B7: TPP-31277 (antibody, IgG4, V domains shown)
VH: B1 VH with V37L
VL: B1 VL with N31S
notes: hIgG4 SPLE, lambda
B8: TPP-31296 (antibody, IgG4, V domains shown)
VH: B1 VH with V37L, F63S
VL: B1 VL
notes: hIgG4 SPLE, lambda
B9: TPP-23580 (antibody, mouse IgG1, kappa)
heavy: EVQLVQSGAEVKKPGASVKISCKASGYTFTDYNMDWVKQAPGQRLEWIGDINPHNGGPIYNQKFTGRATLTVDKSASTAYMELSSLRSEDTAVYYCARGELGHWYFDVWGQGTTVTVSSAKTTPPSVYPLAPGSAAQTNSMVTLGCLVKGYFPEPVTVTWNSGSLSSGVHTFPAVLQSDLYTLSSSVTVPSSTWPSETVTCNVAHPASSTKVDKKIVPRDCGCKPCICTVPEVSSVFIFPPKPKDVLTITLTPKVTCVVVDISKDDPEVQFSWFVDDVEVHTAQTQPREEQFNSTFRSVSELPIMHQDWLNGKEFKCRVNSAAFPAPIEKTISKTKGRPKAPQVYTIPPPKEQMAKDKVSLTCMITDFFPEDITVEWQWNGQPAENYKNTQPIMDTDGSYFVYSKLNVQKSNWEAGNTFTCSVLHEGLHNHHTEKSLSHSPGK
light: DIVLTQSPASLALSPGERATLSCRASKSVSTSGYSYIHWYQQKPGQPPRLLIYLASNLDSGVPARFSGSGSGTDFTLNIHPLEEEDFATYYCQHSRDLPPTFGQGTKLEIKRADAAPTVSIFPPSSEQLTSGGASVVCFLNNFYPKDINVKWKIDGSERQNGVLNSWTDQDSKDSTYSMSSTLTLTKDEYERHNSYTCEATHKTSTSPIVKSFNRNEC
notes: text calls it the mouse IgG1 version of the WO2019238882 antibody; also called BSN 3C6 2.2-2.1-mIgG1Kappa

What follows are binders tested against T1, murine IL-11 (assay: cell-based or functional assay).

RGA potency (mean) [nM] | Binder
< 170 | B1
< 170 | B2
< 170 | B3
< 170 | B4
< 170 | B5
< 170 | B6
< 170 | B7
< 170 | B8

The binders below were run against T2, human IL-11 (assay: cell-based or functional assay).

RGA potency (mean) [nM] | Binder
< 170 | B1
< 170 | B2
< 170 | B3
< 170 | B4
< 170 | B5
< 170 | B6
< 170 | B7
< 170 | B8

These binders were tested against T1, murine IL-11 (assay: SPR; limit told of 12 single-site germlining mutants; antigen not given, SPR run on human and mouse IL-11).

Kd [nM] | Binder
< 19 | B1
< 19 | B2
< 19 | B3
< 19 | B4
< 19 | B5
< 19 | B6
< 19 | B7
< 19 | B8

These binders were tested against T2, human IL-11 in the same assay as above.

Kd [nM] | Binder
< 19 | B1
< 19 | B2
< 19 | B3
< 19 | B4
< 19 | B5
< 19 | B6
< 19 | B7
< 19 | B8

These binders were tested against T3, rat IL-11 (assay: SPR 37 C, antibody captured, IL-11 as analyte).

Kd [nM] | Binder
4.1 | B9

What follows are binders tested against T4, human IL-11 (assay: SPR 37 C, antibody captured, IL-11 as analyte).

Kd [nM] | Binder
2.1 | B9

These binders were tested against T5, murine IL-11 (assay: SPR 37 C, antibody captured, IL-11 as analyte).

Kd [nM] | Binder
2.4 | B9

What follows are binders tested against T6, cynomolgus IL-11 (assay: SPR 37 C, antibody captured, IL-11 as analyte).

binding result | Binder
no binding (tested: IL-11 up to 200 nM) | B9

Target: T1, murine IL-11
Assay: cell-based or functional assay
Remark: another data set of the same source

IC50, RGA 1 [nM] | IC50, RGA 2 [nM] | Binder
31 | 13 | B1
0.13 | 0.08 | B2
41 | 28 | B3
111 | 23 | B4
65 | 17 | B5
52 | 39 | B6
43 | 27 | B7
20 | 22 | B8

Target: T2, human IL-11
Assay: cell-based or functional assay
Remark: another data set of the same source

IC50, RGA 1 [nM] | IC50, RGA 2 [nM] | Binder
58 | 13 | B1
22 | 2.36 | B2
96 | 38 | B3
50 | 16 | B4
101 | 131 | B5
234 | 107 | B6
211 | 47 | B7
46 | 158 | B8

Each binder was assayed against T3, rat IL-11 (assay: cell-based or functional assay).

RGA Efficacy (%) | RGA IC50 [nM] | Binder
62.2 | 14 | B9

What follows are binders tested against T4, human IL-11 (assay: cell-based or functional assay).

RGA Efficacy (%) | Binder
64 | B9

The binders below were run against T5, murine IL-11 (assay: cell-based or functional assay).

RGA Efficacy (%) | RGA IC50 [nM] | Binder
88.9 | 7.9 | B9

Each binder was assayed against T6, cynomolgus IL-11 (assay: cell-based or functional assay).

RGA Efficacy (%) | Binder
21.9 | B9

The binders below were run against T4, human IL-11 (assay: Di-complex ELISA, competitor canine IL11RA-Fc on coated IL-11;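 for Efficacy (%): signal drop relative to signal at lowest antibody concentration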).

Efficacy (%) | IC50 [nM] | Binder
93.3 | 10 | B9

The binders below were run against T5, murine IL-11 in the same assay as above.

Efficacy (%) | IC50 [nM] | Binder
93 | 6.8 | B9
